Here are results for 1 substance from publication PMC3628942.

The target in this experiment is Bombyx mori lipoprotein 3 (Bombyx mori) (UniProt Q00802). Nature of the experiment: crystal structure; crystal form Bmlp3-c2, space group C2, two molecules in the asymmetric unit; grown in 2.0 M ammonium sulfate, 0.1 M ammonium iodide, pH 5.5, 20°C; an iodide anion lies in the centre of the dimer interface.

The substance “Bombyx mori lipoprotein 3 (from UniProt Q00802 18-256) (natural protein)” had a stoichiometry N of 2.

The term stoichiometry N denotes the number of molecules, sites or subunits per partner or assembly.
